Earlier results as cited in paper PMC8416071.

Target: Spike protein (SARS-CoV) (UniProt P59594)
Experiment: ITC

## Griffithsin (from UniProt P84801)
  Kd: 24.9 nM
